Experimental data as given in article PMC10041117.

B1: mTFP-C0C2 (C0C2 of cMyBP-C conjugated to mTFP at its N terminus) (domain or fragment)
chain: MPEPGKRPVSAFTKKPRSVEVTAGSAAVFEAETERSGLKVQWQRDGSDIAANDKYGLAAEGKRHTLTVRDVGPDDQGSYAVIAGSSKVKFDLKVTEPAPPEKAESAVAPTSMEAPETPKEVPALATQLEGNVSSPEGSVSVTQDGSVAGSQGAPDDPIGLFLMRPQDGEVTVGGSIVFSARVAGASLLKPPVVKWFKGKWVDLSSKVGQHLQLHDSYDRASKVYLFELHITDAQATSAGGYRCEVSTKDKFDSCNFNLTVHEAIGSGDLDLRSAFRRTSLAGTGRRTSDSHEDAGTLDFSSLLKKSSFRRDSKLEAPAEEDVWEILRQAPPSEYERIAFQHGVTDLRGMLKRLKGMKHDEKKSTAFQKKLEPAYQVNKGHKIRLTVELADPDAEVKWLKNGQEIQMSGRYIFESIGAKRTLTISQCSLADDAAYQCVVGGEKCSTELFVKEP
modifications: not checked
B2: N-terminal fragment of cMyBP-C containing domains C0 through C2 (C0C2), wild type (domain or fragment)
chain: MPEPGKRPVSAFTKKPRSVEVTAGSAAVFEAETERSGLKVQWQRDGSDIAANDKYGLAAEGKRHTLTVRDVGPDDQGSYAVIAGSSKVKFDLKVTEPAPPEKAESAVAPTSMEAPETPKEVPALATQLEGNVSSPEGSVSVTQDGSVAGSQGAPDDPIGLFLMRPQDGEVTVGGSIVFSARVAGASLLKPPVVKWFKGKWVDLSSKVGQHLQLHDSYDRASKVYLFELHITDAQATSAGGYRCEVSTKDKFDSCNFNLTVHEAIGSGDLDLRSAFRRTSLAGTGRRTSDSHEDAGTLDFSSLLKKSSFRRDSKLEAPAEEDVWEILRQAPPSEYERIAFQHGVTDLRGMLKRLKGMKHDEKKSTAFQKKLEPAYQVNKGHKIRLTVELADPDAEVKWLKNGQEIQMSGRYIFESIGAKRTLTISQCSLADDAAYQCVVGGEKCSTELFVKEP
modifications: not checked

Key:
[1] = target: myosin S2Δ (fragment of the S2 region of myosin consisting of its first 128 residues); experiment: MST; C0C2 constructs binding to myosin S2Δ; as in refs 15 and 25
Chain of myosin S2Δ (fragment of the S2 region of myosin consisting of its first 128 residues) (P12883 838-965, stated change not applied): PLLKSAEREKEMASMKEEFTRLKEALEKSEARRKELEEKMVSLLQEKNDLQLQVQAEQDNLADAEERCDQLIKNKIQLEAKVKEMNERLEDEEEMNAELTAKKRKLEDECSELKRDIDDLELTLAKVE

[2] = target: isolated bovine native thin filaments (NTFs) (bovine), Q3ZC07; experiment: co-sedimentation; C0C2 constructs cosedimented with isolated bovine native thin filaments (NTFs); as in ref. 15

| Binder | Kd [1] [µM] | Kd [2] [µM] |
| --- | --- | --- |
| B1 | 35 | 18 |
| B2 | 20 | 42 |
